Results taken from article PMC11811200.

Substrate: Oc1cc(O)c2c(c1)O[C@H](c1ccc(O)c(O)c1)[C@@H](O)C2
Assay: purified protein
Settings: 100 mM acetate buffer pH 5.0, 28 °C, 5-300 μM substrate

B1: SmLAC1 (recombinant MBP-SmLAC1) (Salvia miltiorrhiza) (protein)
chain: MERSLMFSAWVLALLVCLSSFASAAIVEHTFHVKNLTVNKLCRNQVITAVNGSLPGPTLRVHEGDTLVVHVFNKSPYNLTIHWHGIFQILSGWADGPEFATQCPIRPGQSYTYRFNITGQEGTLWWHAHVGWLRATVYGALVIRPRSGHSFPFPKPHREIPIVLGEWWNANVIDVENQALATGAAPNLSDAYTINGHPGNLYPCSSNDTFRLTVVHGKTYLLRIINAALNNQLFFKIANHNLTVVAVDASYTNPYTTDVVLVAPGQTTDVLLTADQTPARYYMAASAYQSAAGVPFDNTTTTGIVAYSGTTPSAPIMPLLPAFNDTPTAHRFFSNLTALVSSRFWAPVPRHVDERMFVTIGLGLSACDLPQCQGPFGLKLAASMNNASFQFPTRLSMLEAFFRGVGGIYTADFPDNPPVRFDYTNSSNSLNQALLNTTKSTKVKKVRFNSTVEVVLQNTAFLGVENHPIHLHGFNFYVLAQGFGNYNPALDTRKFNFVNPQERNTIGVPVGGWAVIRFRANNPGVWLIHCHLDVHLPWGLATAFVVENGPTPATTLPPPPADFPKC
Km: 21.2 µM
